By stoichiometry N is commonly meant the number of molecules, sites or subunits per partner or assembly.

The values below come from publication PMC2132943.

In this test the target is T1, CXCR4 receptor (human (endogenous in HEK-293)), P61073.
T1 chain: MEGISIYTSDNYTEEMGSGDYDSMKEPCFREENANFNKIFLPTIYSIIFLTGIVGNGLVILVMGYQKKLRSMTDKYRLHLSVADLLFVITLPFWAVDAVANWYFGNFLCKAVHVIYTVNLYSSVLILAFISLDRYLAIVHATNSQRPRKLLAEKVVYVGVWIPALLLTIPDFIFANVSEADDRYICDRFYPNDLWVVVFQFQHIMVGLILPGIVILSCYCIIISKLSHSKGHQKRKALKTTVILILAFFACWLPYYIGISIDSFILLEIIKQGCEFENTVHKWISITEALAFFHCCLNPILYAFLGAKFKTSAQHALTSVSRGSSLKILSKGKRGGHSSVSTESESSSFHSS
Briefly: cross-linking. Conditions: remark: other sources report otherwise.

B1: CXCR4 receptor, P61073 1-352 (receptor)
chain: MEGISIYTSDNYTEEMGSGDYDSMKEPCFREENANFNKIFLPTIYSIIFLTGIVGNGLVILVMGYQKKLRSMTDKYRLHLSVADLLFVITLPFWAVDAVANWYFGNFLCKAVHVIYTVNLYSSVLILAFISLDRYLAIVHATNSQRPRKLLAEKVVYVGVWIPALLLTIPDFIFANVSEADDRYICDRFYPNDLWVVVFQFQHIMVGLILPGIVILSCYCIIISKLSHSKGHQKRKALKTTVILILAFFACWLPYYIGISIDSFILLEIIKQGCEFENTVHKWISITEALAFFHCCLNPILYAFLGAKFKTSAQHALTSVSRGSSLKILSKGKRGGHSSVSTESESSSFHSS
In turn, B1 gave a stoichiometry N of 2.
